Assay [1] deals with Hck (2PA-YEEI) (UniProt P08631). The assay is described as follows: SPR; Hck (2PA-YEEI) amine-coupled (EDC/NHS) to a CMD 500 carboxymethyl dextran chip, 6053 RU, BIAcore 2000; Csk, Chk, Chk mutants and chimera as analytes in HBS (10 mM HEPES pH 7.4, 150 mM NaCl, 3.4 mM EDTA, 0.005% Tween 20); global fit to a 1 to 1 model with mass transfer; molecular binding activity from the maximum response. On the technique in general: In SPR one partner is held on a chip, and binding of the other changes the refractive index at the surface.

Assay [2] shares this target.

Experimental findings from article PMC5547543 are described below.

B1: Csk-homologous kinase (Chk), recombinant wild type (enzyme)
chain: MQGHFPAERREGRPRRGTRGQQQLLVSPRFLRAWHPPPVSARMPTRRWAPGTQCITKCEHTRPKPGELAFRKGDVVTILEACENKSWYRVKHHTSGQEGLLAAGALREREALSADPKLSLMPWFHGKISGQEAVQQLQPPEDGLFLVRESARHPGDYVLCVSFGRDVIHYRVLHRDGHLTIDEAVFFCNLMDMVEHYSKDKGAICTKLVRPKRKHGTKSAEEELARAGWLLNLQHLTLGAQIGEGEFGAVLQGEYLGQKVAVKNIKCDVTAQAFLDETAVMTKMQHENLVRLLGVILHQGLYIVMEHVSKGNLVNFLRTRGRALVNTAQLLQFSLHVAEGMEYLESKKLVHRDLAARNILVSEDLVAKVSDFGLAKAERKGLDSSRLPVKWTAPEALKHGKFTSKSDVWSFGVLLWEVFSYGRAPYPKMSLKEVSEAVEKGYRMEPPEGCPGPVHVLMSSCWEAEPARRPPFRKLAEKLARELRSAGAPASVSGQDADGSTSPRSQEP
For the molecule B1, in assay [1], the dissociation constant (Kd) (as a rule, the constant that tells how readily two partners part at equilibrium) was 64 nM; the dissociation rate constant (koff) (commonly the rate constant with which the complex falls apart) amounted to 0.000272 s⁻¹; the kon (as a rule, the rate constant with which the complex forms) came to 4250 M⁻¹ s⁻¹. For the same molecule, the molecular binding activity (MBA) at 2.2 μM Chk in assay [1] (scale: mol of analyte bound per mol of immobilized Hck) came out at 0.46. Moreover, the inhibition of the kinase activity of Hck (2PA-YEEI) (0.5 μM) on the cdc2 (6-20) peptide after pre-incubation with Chk; more than 60% at 1.5 μM, up to 8.3 μM Chk in assay [2] worked out at 80%.
